Assay results as given in patent publication US9526786B2, “Thermostabilization of proteins” (The Trustee of Columbia University in the City of New York, priority 2007, dated 2016).
Where a chain is given by its changes, count along the chain named. Names may count otherwise. Like-named read-outs stand apart in the source and are kept apart here.

T1: WT CocE (Rhodococcus sp., UniProt Q9L9D7)
T1 sequence (Q9L9D7 1-574): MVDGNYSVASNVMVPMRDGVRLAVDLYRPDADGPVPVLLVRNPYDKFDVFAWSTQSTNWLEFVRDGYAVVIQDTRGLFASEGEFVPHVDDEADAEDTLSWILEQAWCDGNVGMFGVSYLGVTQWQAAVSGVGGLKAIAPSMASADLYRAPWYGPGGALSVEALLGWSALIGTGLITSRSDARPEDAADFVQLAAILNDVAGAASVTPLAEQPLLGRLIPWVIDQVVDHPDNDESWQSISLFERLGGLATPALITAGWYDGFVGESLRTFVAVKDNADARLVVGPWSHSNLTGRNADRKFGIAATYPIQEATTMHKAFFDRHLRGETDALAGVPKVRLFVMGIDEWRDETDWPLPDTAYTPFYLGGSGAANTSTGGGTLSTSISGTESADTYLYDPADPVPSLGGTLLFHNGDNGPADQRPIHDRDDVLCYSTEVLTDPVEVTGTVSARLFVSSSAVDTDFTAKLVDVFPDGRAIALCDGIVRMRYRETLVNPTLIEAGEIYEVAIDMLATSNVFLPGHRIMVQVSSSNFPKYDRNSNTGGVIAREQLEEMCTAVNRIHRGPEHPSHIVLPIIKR

T2: CocE (Rhodococcus sp., UniProt Q9L9D7)
T2 construct: 6xHis (C); made in house; host or cells: E. coli BL-21 Gold (DE3), pET-22b(+)
T2 sequence (Q9L9D7 1-574): T1 sequence (Q9L9D7 1-574)

B1: T172R: CocE mutant (protein, listed as Rhodococcus sp.)
chain: T1 sequence (Q9L9D7 1-574) with T172R
B2: L169K: CocE mutant (protein, listed as Rhodococcus sp.)
chain: T1 sequence (Q9L9D7 1-574) with L169K

Columns and labels:
[1] = biological target: T1, WT CocE; conditions: excess benzoic acid; 5× molarity phenylboronic acid; 6031818
Method: Further characterization of the stability of wild type (WT) CocE and thermostable mutants was performed through circular dichroism, which detects small changes in protein conformation and structure. Analysis by repeated CD measurements at increasing temperatures allows analysis of the thermodynamics and melting temperature (TM) of the protein, so long as the melting is reversible (i.e. the protein resumes it's original conformation upon cooling). […] However CD is still of value in determining the temperature to unfolding.

[2] = biological target: T2, CocE; assay type: biochemical, Rhodococcus sp. MB 1
Method: (§1) Analysis of CocE action on cocaine cleavage is performed by utilizing the spectroscopic properties of cocaine, which maximally absorbs light at a 240 nm wavelength. CocE activity is measured by monitoring for a decrease in signal at A240, using various concentrations of cocaine, and determining the initial rate of the decrease. From these values the Vmax of the enzyme can be determined. By pre-incubating the enzyme at 37° C. for various times before monitoring for activity, the half life of CocE at 37° C. can be calculated.
(§2) The initial rates (of decay) were determined by following the change in the intrinsic absorbance of cocaine at 240 nm (6700 M^1 cm^1)(Xie et al., 1999) using a SpectraMax Plus 384 UV plate reader (Molecular Devices, Sunnyvale, Calif.) using SOFTmax Pro software (Version 3.1.2). The reaction was initiated by adding 100 μL of a 2× enzyme solution (100 mM phosphate buffer, pH 7.4 and 300 mM NaCl) to 100 μL of a 2× cocaine solution (50 μg/mL enzyme, 100 mM Phosphate Buffer, pH 7.4 and 300 mM NaCl). All assays were performed with 100 μM DTT unless indicated otherwise. Final cocaine concentrations were as follows: 125, 62.5, 31.25, 15.63, 7.81, 3.91, 1.95, and 0.977 μM. Vmax and Km values were calculated using Prism (GraphPad Software, San Diego). For stability measurements, wild type and mutant enzymes were diluted to 2× concentration and incubated at 37° C. for the times indicated. At the end of each time point, an aliquot was removed and kinetic behavior was observed as outlined above.
(§3) In vitro kinetic assays. […] Initial rates were then used to determine Michaelis-Menten parameters. To assess thermal stability, enzyme preparations were preincubated at 37° C. for various lengths of time, prior to measurement of residual activities (Table 1 and FIG. 23).

[3] = biological target: T2, CocE; assay type: biochemical, Rhodococcus sp. MB 1; remark: listed apart in the source
Method: CocE is also able to cleave another substrate, 4-nitrophenyl acetate (FIG. 3). Cleavage is monitored by detection of the appearance of the 4-nitrophenol reaction product, which absorbs at 400 nm.
Further spectrophotometric analysis of cocaine stabilization was performed, by analyzing the ability of CocE to cleave 4-nitrophenyl acetate, after preincubation at 37° C. for various times, in the presence of various concentrations of cocaine. […] However, preincubation of CocE at the higher concentrations for various times at 37° C. indicated the enzyme was stabilized enough to be able to cleave the 4-nitrophenyl substrate (FIG. 5).

[4] = biological target: T2, CocE; assay: Screen for stabilization of CocE: 1 hour at 37° C., then 4-nitrophenyl acetate cleavage; assay type: biochemical, Rhodococcus sp. MB 1; conditions: forty compounds tested
Method: However all of these small molecules inhibited enzyme activity to certain degrees. It was evaluated whether there might exist a small molecule that could prevent CocE aggregation, without inhibiting enzyme activity. Such a molecule could be used as a stabilizer in vitro, e.g., during enzyme preparation, and in vivo. An assay was designed to screen a library of 20,000 small molecules for stabilization of CocE. In that assay, the enzyme is mixed with the compounds in a 96-well plate format, and then incubated at 37° C. for one hour. […] After 37° C. incubation, the enzyme/compound mixtures are tested for the ability to cleave 4-nitrophenyl acetate (FIG. 8). Only compounds stabilized would be able to cleave after this incubation period.
Forty compounds were first tested. The compounds were assayed in duplicate with appropriate controls. A duplicate plate (without enzyme) was performed as a negative control, to check for compounds able to cause an increase in 400 nm absorbance in the absence of CocE. […] Some were able to do this in the absence of CocE. These were discarded as false positives.
FIG. 9 is a plot of the initial rate of 4-nitrophenyl acetate cleavage for all compounds, after the background “no enzyme” cleavage was subtracted. […]

[5] = Method: as §1
as §2, with “Final cocaine concentrations were as follows: 125, 62.5, 31.25, 15.63, 7.81, 3.91, 1.95, and 0.977 μM. Vmax and Km values were calculated using Prism (GraphPad Software, San Diego).” left out
as §3

[6] = Circular dichroism melting temperature of CocE proteins alone; assay type: physicochemical; conditions: for melting temperature: circular dichroism, enzyme alone
[7] = test system: cocaine-induced lethality; assay: In vivo potency of protection against cocaine-induced lethality; design: species or system NIH-Swiss mice; conditions: for protection against cocaine-induced lethality: i.v. pretreatment 1 min prior to i.p. cocaine
[8] = Michaelis-Menten kinetics of cocaine hydrolysis (absorbance at 240 nm); assay type: biochemical; conditions: cocaine
Method: as §2, §3
Determination of Catalytic Efficiency. To determine the catalytic activity a spectrophometric assay was performed. Samples of L169K/G173Q CocE were added to a 96-well UV permeable plate containing increasing cocaine concentrations (0.5, 2.5, 5, 12.5, 25, 50, 100, and 150 μM) to give a final concentration of 10 ng/ml CocE in a final volume of 200 μl. The change in absorbance at 240 nm was measured over 20 minutes, with readings every 10 seconds, by a SpectraMax Plus 384 UV plate reader (Molecular Devices, Sunnyvale, Calif.) using SOFTmax Pro software (Version 3.1.2). The change in absorbance was converted to the change in concentration and furthermore the rate of decay per mole enzyme is determined (Kcat). Kcat and Km of the enzyme are determined using Prism (GraphPad software, San Diego).

[9] = test system: cocaine-induced lethality; assay: In vivo duration of protection against cocaine-induced lethality; design: species or system NIH-Swiss mice; conditions: 1 mg i.v.; cocaine 180 mg/kg i.p.
Method: In vivo protection against cocaine lethality. Male NIH-Swiss mice (25-32 g) were obtained from Harlan Inc. (Indianapolis, Ind.) and were housed in groups of 6 mice per cage. All mice were allowed ad libitum access to food and water, and were maintained on a 12-h light-dark cycle with lights on at 06.30 AM in a room kept at a temperature of 21-22° C. Experiments were performed in accordance with the Guide for the Care and Use of Laboratory Animals as adopted and promulgated by the National Institutes of Health. The experimental protocols were approved by the University Committee on the Use and Care of Animals at the University of Michigan.
Cocaine-induced toxicity was characterized by the occurrence of lethality, as defined by the cessation of observed movement and respiration. Mice were placed individually in Plexiglas observation chambers (16×28×20 cm high) to be habituated for 15 min before drug administration. Following intra-peritoneal (i.p.) cocaine administration, the mouse was immediately placed individually in the same chamber for observation. The presence or absence of lethality was recorded for 60 min following cocaine administration. The mouse was placed in a small restraint chamber (Outer tube diameter: 30 mm; Inner tube diameter: 24 mm) that left the tail exposed. The tail was cleansed with an alcohol wipe and a 30G1/2 precision glide needle (Fisher Scientific, Pittsburgh, Pa.) was inserted into one of the side veins for infusion. The i.v. injection volume of CocE or CocE mutant was 0.2 mL per mouse. Sterile gauze and pressure were applied to the injection site to staunch the bleeding.
Lethality was monitored following injection at 1, 5, 10, or 30 min, or 1, 2, 3, 4, 5 hours after enzyme administration. Each treatment used 8 mice to assess the percent of lethality (i.e., protection) in mice pretreated with a single dose of an esterase at a single time point.
These values were used to compare the degree of rightward shifts of cocaine's dose-response curve in the absence or presence of the enzyme pretreatment. In the time course study, a time point for duration of protection (i.e., 50% of lethality) was estimated by using each time course curve crossing 50% occurrence of lethality.
Evaluation of in vivo half life. CocE is administered IV to the tail vein in a volume of 0.2 ml. Animals are challenged with 180 mg/kg cocaine delivered intraperitoneally at a given time after CocE administration.

[10] = cocaine: 62.5 and 125 μM, benzoic acid: higher concentrations

Row | Molecule | melting temperature of WT CocE in presence of compound [1] [°C] | inhibition of cocaine cleavage [2] | inhibition of 4-nitrophenyl acetate cleavage [3] [µM] | inhibition of 4-nitrophenyl acetate cleavage [3, 10] | effectiveness in stabilization screen [4] | Stability @ 37 (t1/2) [5] [h] | half-life / τinact of activity at 37° C. [5] [h] | t1/2 [5] [h] | melting temperature higher than the WT [6] | melting temperature [6] [°C] | protection against cocaine-induced lethality [7] | Kcat(mol · s^−1 · mol^−1) [8] [mol · s^−1 · mol^−1] | LT50, pretreatment time to 50% lethality [9] [h] | plateau of catalytic activity, percent of maximal ([5]; 37° C., after greater than 8 hr / t=10 hours) | rightward shift in the cocaine dose-response curve ([7]; enzyme 1 mg (30 mg/kg) i.v.) | increase in Km [8] [fold]
1 | CCOc1ccccc1N(CC(=O)N1CCCCC1)S(=O)(=O)c1ccccc1 [compound 6031818] | ~42 | does not inhibit | 16 | weak inhibitor | most effective |  |  |  |  |  |  |  |  |  |  | 
2 | COc1ccc(OC)c(N(CC(=O)N2CCCCC2)S(=O)(=O)c2ccccc2)c1 [compound 6169221] |  | did not inhibit |  | did not inhibit | effective |  |  |  |  |  |  |  |  |  |  | 
3 | B1 |  |  |  |  |  | ~0.767 | 0.767 | 0.78 | 2-3 degrees | ~42 | protected | 2502 | ~1.8 |  |  | 
4 | B2 |  |  |  |  |  | ~4.57 | 4.57 | 4.57 |  | ~65 | protected | 3104 | ~3.3 | approximately 35% | 6-7 fold | ~5
